Measured values: patent US20150166663A1 (AstraZeneca / MedImmune, published 2015)

T1: cynomolgus β6 on transfected HEK-293 cells (cynomolgus)
T1 chain: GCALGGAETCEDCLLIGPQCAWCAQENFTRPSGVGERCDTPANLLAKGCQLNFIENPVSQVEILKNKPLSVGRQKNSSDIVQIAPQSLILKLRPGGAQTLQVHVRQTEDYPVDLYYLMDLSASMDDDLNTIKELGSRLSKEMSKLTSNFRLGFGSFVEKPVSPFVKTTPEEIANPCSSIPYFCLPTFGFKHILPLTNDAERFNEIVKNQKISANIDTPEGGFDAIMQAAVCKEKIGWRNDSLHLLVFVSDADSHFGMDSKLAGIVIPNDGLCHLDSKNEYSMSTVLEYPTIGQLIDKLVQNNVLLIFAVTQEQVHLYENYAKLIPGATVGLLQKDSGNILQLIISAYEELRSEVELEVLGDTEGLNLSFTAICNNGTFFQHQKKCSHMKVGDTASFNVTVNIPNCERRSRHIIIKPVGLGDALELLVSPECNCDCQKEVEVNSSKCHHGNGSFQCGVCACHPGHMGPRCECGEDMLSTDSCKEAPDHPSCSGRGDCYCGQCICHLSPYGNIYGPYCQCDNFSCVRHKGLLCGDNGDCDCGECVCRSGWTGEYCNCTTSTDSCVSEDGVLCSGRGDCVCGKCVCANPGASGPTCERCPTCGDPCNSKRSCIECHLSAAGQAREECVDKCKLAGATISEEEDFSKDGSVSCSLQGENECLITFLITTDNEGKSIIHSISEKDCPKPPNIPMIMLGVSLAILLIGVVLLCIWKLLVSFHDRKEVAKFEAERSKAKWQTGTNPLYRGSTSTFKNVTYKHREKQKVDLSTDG


How the values were obtained:
[1] = target: T2, cynomolgus αVβ6 on cells (cynomolgus); assay: FACS, supernatant, HEK-293 cells transfected with cynomolgus αV and β6
T2 construct: whole, on cells; also called macaque αVβ6; Mac AVB6
Procedure: The assays were performed as follows. […] The cells were then pelleted, the supernatant discarded, and resuspended in FACS buffer and incubated for 30 minutes at 37° C. Cells were then washed twice with FACS buffer and resuspended in a final volume of 100 μL FACS buffer per well.
HEK-293 cells were transiently transfected with cynomolgus αV and cynomolgus β6. After 48 hours, the cells were collected and resuspended in FACS buffer to reach a final concentration of approximately 50,000 cells in 100 μL.
Approximately 100,000 cells total, comprising a 50:50 mix of CFSE-labeled A375M cells and transfected 293 cells, were used in each reaction as follows. 100 μL of CFSE-labeled A375M cells and 100 μL of 293 cells were dispensed into a V-bottom plate. The cells in the plate were pelleted at 1500 rpm for 3 minutes, and then resuspended in 100 μL FACS buffer. The pelleting step was repeated, and the FACS buffer supernatant was removed. The harvested antibody-containing supernatants, or control primary antibodies were added in a volume of 50 μL and the cells were resuspended. […] The plate was incubated on ice for 45 minutes, after which 100 μL FACS buffer was added to dilute the primary antibody. The cells were then pelleted by centrifuging at 1500 rpm for 3 minutes, and the pellet was resuspended in 100 μL FACS buffer. The pelleting step was repeated, and the FACS buffer supernatant was removed. Cells were then resuspended in the appropriate secondary antibody (5 μg/ml) with 7AAD dye (10 μg/ml), and stained on ice for 7 minutes. Then 150 μL of FACS buffer was added and the cells were pelLeted at 1500 rpm for 3 minutes, after which the cells were washed in 100 μL FACS buffer, pelleted, and then resuspended in 250 μL buffer and added to FACS tubes. Samples were analyzed on a high throughput FACS machine and analyzed using Cell Quest Pro software.

[2] = target: T3, soluble αVβ6 (human, UniProt P06756 31-992; P18564 22-709); assay: competition ELISA: soluble αVβ6 (250 ng/ml) pre-incubated with the mAb, then binding to plate-coated GST-LAP, bound αVβ6 detected with mAb 2075
T3 construct: extracellular domain; also called soluble antigen; soluble αVβ6 protein
T3 sequence (P06756 31-992, one chain of several): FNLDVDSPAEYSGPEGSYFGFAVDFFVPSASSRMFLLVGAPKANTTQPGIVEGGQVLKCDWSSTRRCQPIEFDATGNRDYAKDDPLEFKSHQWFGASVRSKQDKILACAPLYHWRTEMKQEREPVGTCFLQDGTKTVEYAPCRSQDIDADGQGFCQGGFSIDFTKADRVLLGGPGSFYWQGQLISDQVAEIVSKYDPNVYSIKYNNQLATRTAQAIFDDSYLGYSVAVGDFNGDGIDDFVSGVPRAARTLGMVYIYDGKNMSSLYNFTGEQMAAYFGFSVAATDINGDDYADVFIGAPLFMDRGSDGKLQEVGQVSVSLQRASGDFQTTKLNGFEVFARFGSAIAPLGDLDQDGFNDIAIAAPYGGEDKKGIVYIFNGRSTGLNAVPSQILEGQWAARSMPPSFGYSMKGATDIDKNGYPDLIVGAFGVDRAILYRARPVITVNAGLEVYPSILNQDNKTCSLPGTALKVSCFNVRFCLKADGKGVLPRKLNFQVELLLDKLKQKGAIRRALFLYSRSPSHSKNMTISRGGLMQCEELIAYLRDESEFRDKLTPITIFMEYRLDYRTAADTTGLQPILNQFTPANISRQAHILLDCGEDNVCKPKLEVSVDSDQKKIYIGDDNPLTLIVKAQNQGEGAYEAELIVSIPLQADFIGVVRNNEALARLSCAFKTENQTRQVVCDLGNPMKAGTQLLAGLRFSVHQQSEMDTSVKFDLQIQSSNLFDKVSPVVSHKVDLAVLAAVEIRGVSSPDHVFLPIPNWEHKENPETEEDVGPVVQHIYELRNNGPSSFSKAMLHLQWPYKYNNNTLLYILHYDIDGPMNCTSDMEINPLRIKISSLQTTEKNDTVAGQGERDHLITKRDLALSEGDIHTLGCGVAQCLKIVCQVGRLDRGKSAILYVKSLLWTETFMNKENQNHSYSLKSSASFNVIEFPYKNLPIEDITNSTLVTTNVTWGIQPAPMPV
Procedure: The wells were then washed three times using 300 μL/well of assay diluent. […] The wells were then washed three times using 300 μL/well of assay diluent, and incubated with goat anti-mouse IgG Fc-peroxidase at 400 ng/ml in assay diluent (50 μL/well) for one hour at room temperature. The wells were then washed three times using 300 μL/well of assay diluent, and developed using 1-step TMB (Neogen) at a total volume of 50 μL/well. After 15 minutes, the developing reaction was quenched with 50 μL/well of 1N Hydrochloric acid.

[3] = target: T2, cynomolgus αVβ6 on cells; assay: FACS, purified mAb, transiently transfected HEK-293 cells (parental cells 49)
Procedure: (§1) Cross-reactivity of the mAbs to macaque and mouse αVβ6 was tested on the purified mAbs using FACS analysis on HEK-293 cells transiently transfected with cynomolgus or mouse αV, β6, or αVβ6. Approximately 48 hours after transfection, the cells were collected and resuspended in FACS buffer to reach a final concentration of approximately 50,000 cells in 100 μL.
(§2) Approximately 100,000 cells total, were used in each reaction as follows. 200 μL of 293 cells were dispensed into a V-bottom plate. The cells in the plate were pelleted at 1500 rpm for 3 minutes, and then resuspended in 100 μL FACS buffer. The pelleting step was repeated, and the FACS buffer supernatant was removed. The purified mAbs, or control primary antibodies were added in a volume of 50 μL and the cells were resuspended. […] The plate was incubated on ice for 45 minutes, after which 100 μL FACS buffer was added to dilute the primary antibody. The cells were then pelleted by centrifuging at 1500 rpm for 3 minutes, and the pellet was resuspended in 100 μL FACS buffer. The pelleting step was repeated, and the FACS buffer supernatant was removed. Cells were then resuspended in the appropriate secondary antibody (5 μg/ml) with 7AAD dye (10 μg/ml), and stained on ice for 7 minutes. Then 150 μL of FACS buffer was added and the cells were pelleted at 1500 rpm for 3 minutes, after which the cells were washed in 100 μL FACS buffer, pelleted, and then resuspended in 250 μL buffer and added to FACS tubes. Samples were analyzed on a high throughput FACS machine and analyzed using Cell Quest Pro software.

[4] = target: T4, cynomolgus αV on transfected HEK-293 cells (cynomolgus, UniProt A0A2K5WCD3 31-1048); assay: as above
T4 construct: Chain transfected alone; also called Cynomolgus alphaV
T4 sequence (A0A2K5WCD3 entry or part of it limits assumed): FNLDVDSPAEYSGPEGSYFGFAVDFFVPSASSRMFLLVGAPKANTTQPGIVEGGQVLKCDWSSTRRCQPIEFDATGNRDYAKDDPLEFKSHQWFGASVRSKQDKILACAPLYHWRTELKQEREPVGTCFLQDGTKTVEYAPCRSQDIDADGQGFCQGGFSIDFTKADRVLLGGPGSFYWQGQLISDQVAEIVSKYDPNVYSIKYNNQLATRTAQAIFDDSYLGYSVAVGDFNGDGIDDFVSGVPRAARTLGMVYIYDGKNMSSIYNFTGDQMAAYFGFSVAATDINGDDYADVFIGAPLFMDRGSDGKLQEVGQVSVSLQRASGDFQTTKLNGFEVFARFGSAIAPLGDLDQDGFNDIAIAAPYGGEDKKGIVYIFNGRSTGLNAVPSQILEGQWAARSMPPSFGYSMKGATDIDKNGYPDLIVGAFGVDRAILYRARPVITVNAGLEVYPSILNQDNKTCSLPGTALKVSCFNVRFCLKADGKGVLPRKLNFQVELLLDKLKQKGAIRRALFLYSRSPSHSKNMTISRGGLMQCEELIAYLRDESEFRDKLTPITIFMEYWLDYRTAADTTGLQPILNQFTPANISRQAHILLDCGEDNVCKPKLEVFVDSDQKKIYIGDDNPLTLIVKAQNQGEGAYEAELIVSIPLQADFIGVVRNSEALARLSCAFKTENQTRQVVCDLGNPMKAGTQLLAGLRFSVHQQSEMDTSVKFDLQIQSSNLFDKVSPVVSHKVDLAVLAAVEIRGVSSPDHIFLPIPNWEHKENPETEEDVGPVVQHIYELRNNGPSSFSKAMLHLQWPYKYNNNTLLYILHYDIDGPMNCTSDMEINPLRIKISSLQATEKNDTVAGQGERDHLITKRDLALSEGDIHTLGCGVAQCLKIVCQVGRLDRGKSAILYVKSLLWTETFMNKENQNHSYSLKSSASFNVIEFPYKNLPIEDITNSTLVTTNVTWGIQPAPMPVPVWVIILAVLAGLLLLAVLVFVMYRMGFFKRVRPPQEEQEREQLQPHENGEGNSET
Procedure: as §1, §2

[5] = target: T5, mouse αVβ6 on cells (mouse, UniProt P43406 31-1044; Q9Z0T9 22-787); assay: as above
T5 construct: whole, on cells; also called Mouse alphaVbeta6
T5 sequence (P43406 31-1044, chain 1 of 2): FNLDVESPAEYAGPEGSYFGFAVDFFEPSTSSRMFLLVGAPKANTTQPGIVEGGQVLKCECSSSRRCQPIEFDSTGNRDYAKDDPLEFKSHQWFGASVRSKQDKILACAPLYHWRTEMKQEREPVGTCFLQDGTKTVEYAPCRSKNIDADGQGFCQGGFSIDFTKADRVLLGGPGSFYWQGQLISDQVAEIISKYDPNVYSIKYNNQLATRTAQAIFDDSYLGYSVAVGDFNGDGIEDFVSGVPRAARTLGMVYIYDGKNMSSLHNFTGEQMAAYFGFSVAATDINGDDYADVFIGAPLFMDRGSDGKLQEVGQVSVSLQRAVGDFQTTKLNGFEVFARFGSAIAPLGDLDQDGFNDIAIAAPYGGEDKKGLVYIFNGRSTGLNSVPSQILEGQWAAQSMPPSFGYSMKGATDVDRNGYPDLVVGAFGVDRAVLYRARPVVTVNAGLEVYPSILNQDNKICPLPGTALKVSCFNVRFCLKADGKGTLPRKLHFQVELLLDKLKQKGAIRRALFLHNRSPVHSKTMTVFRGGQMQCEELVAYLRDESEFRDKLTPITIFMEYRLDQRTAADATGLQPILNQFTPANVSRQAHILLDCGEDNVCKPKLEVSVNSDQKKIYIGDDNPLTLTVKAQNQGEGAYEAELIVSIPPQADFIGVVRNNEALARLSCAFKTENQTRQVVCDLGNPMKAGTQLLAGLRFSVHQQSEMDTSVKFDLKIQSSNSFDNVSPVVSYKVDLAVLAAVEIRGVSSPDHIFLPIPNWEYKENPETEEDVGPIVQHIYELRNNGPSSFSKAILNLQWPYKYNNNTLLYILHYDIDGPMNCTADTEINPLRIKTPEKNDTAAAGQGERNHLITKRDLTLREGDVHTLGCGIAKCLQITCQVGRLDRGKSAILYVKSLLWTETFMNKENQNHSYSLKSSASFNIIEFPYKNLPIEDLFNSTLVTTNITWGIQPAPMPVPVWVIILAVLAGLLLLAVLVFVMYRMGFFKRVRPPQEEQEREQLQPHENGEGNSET
T5 sequence (Q9Z0T9 22-787, chain 2 of 2): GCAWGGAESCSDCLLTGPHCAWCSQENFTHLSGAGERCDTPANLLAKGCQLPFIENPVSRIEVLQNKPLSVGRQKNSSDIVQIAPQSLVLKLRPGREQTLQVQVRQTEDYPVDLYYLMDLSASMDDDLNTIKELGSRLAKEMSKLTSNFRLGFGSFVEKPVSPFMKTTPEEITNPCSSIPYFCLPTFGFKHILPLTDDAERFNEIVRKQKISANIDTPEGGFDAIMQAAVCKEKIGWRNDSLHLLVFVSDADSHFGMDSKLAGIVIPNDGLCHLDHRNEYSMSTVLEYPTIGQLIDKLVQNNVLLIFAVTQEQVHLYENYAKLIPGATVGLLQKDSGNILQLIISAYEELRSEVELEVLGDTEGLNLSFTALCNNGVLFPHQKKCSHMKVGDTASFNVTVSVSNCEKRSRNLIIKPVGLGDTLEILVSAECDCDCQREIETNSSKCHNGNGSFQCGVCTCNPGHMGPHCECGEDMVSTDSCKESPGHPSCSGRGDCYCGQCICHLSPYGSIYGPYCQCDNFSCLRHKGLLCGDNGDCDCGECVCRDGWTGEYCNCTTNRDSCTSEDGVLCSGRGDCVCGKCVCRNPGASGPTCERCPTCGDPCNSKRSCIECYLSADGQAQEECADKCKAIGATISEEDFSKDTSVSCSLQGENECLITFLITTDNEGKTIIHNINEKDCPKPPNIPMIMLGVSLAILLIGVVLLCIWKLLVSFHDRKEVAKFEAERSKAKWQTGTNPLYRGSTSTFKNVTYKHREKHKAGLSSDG
Procedure: as §1, §2

[6] = target: T6, human αVβ6 integrin on cells (human, UniProt P06756 31-1048; P18564 22-788); assay: FACS titration on K562 cells stably expressing human αVβ6, Cy5 goat anti-human detection, averaged geometric mean fluorescence
T6 construct: whole, on cells; also called alphaVbeta6
T6 sequence (P06756 31-1048, one chain of several): as the sequence (A0A2K5WCD3 entry or part of it limits assumed) above, with L118M, I264L, D270E, W562R, F609S, S660N, I753V, A840T counted along it
Procedure: K562 cells expressing αVβ6 were resuspended in filtered HBS buffer containing 1 mM of MgCl₂ and 1 mM of CaCl₂ at a concentration of approximately 6 million cells/mL. The cells were kept on ice. […] The 12th well in each row contained buffer only. Titrations were done in triplicate. Additional HBS and cells were added to each well so that the final volume was 300 μL/well and each well contained approximately 120,000 cells. […] The plates were then shaken for 40 minutes at 4° C., and thereafter were spun and washed once again three times with HBS. The Geometric Mean Fluorescence (GMF) of 20,000 “events” for each mAb concentration was recorded using a FACSCalibur instrument, and the corresponding triplicate titration points were averaged to give one GMF point for each mAb concentration. A plot of the averaged GMF as a function of molecular mAb concentration with Scientist software was fit nonlinearly using the equation:

[7] = target: T6, human αVβ6 integrin on cells; assay: FACS, 293T-αVβ6 cells, 1.25 ug/ml
[8] = target: T6, human αVβ6 integrin on cells; assay: FACS, 293T-αVβ6 cells, 5 ug/ml
[9] = target: T6, human αVβ6 integrin on cells; assay: FACS, 293T-αVβ6 cells, 20 ug/ml
[10] = target: T1, cynomolgus β6 on transfected HEK-293 …; assay: FACS, purified mAb, transiently transfected HEK-293 cells
Procedure: as §1, §2

[11] = target: T2, cynomolgus αVβ6 on cells; assay: as above
Procedure: as §1, §2

[12] = target: T4, cynomolgus αV on transfected HEK-293 …; assay: as above
Procedure: as §1, §2

[13] = target: T6, human αVβ6 integrin on cells; assay: FACS titration on K562 cells stably expressing human αVβ6, done as in Example 18, averaged geometric mean fluorescence

Row | Binder | Mac AVB6 % Cells Shifted [1] [%] | Mac AVB6 GeoMean [1] | other results
1 | sc 161 (antibody, V domains shown, Fully human XenoMouse mAb) VH: EVQLVQSGAEVKKPGESLKISCKGSGYSFTSYWIGWVRQMPGKGLEWMGIIYPGDSDTRYSPSFQGQVTISADKSISTAYLQWSSLKASDTAMYYCARHGIAAAGFYYYYMDVWGQGTTVTVSS VL: EIVLTQSPDTLSLSPGERASLSCRASQNVNRNYLVWYQQKPGQAPRLLIYGTSNRATGIPDRFSGSGSGTDFTLTISRLEPEDFAVYYCQQCGSLPFTFGPGTKVDIKR | 14 | 33 | 
2 | sc 254 (antibody, V domains shown, Fully human XenoMouse mAb) VH: QVQLQESGPGLVKPSQTLSLTCTVSGGSISSGGYYWSWIRQHPGKGLEWIGYIYYSGSTYYNPSLKSRVTISVDTSKNQFSLKLSSVTAADTAMYYCARYRGPAAGRGDFYYFGMDVWGQGTTVTVSS VL: DIVMTQTPLSLSVTPGQPASIFCKSSQSLLNSDGKTYLCWYLQKPGQPPQLLIYEVSNRFSGVPDRFSGSGSGTDFTLKISRVEAEDVGVYYCMQGIQLPWAFFGQGTKVEIK |  | 78.5 | IC50 (read off the curve) [2]: ~0.3 µg/mL
3 | sc 320 (antibody, V domains shown, Fully human XenoMouse mAb) VH: EVQLVESGGGLVKPGGSLRLSCAASGYTFTNYIMHWVRQAPGKGLEWVSSISISSSYIYYADSVKGRFTISRDNAKNSLYLQMNSLRAEDTAVYYCARDPVPLERRDYYYGMDVWGQGTTVTVSS VL: QSVLTQPPSMSAAPGQKVTISCSGSSSNIGNNYVSWYQQLPGTAPKLLIYDNNKRPSGIPDRFSGSKSGTSATLGITGLQTGDEADYYCGTWDSSLSAGVFGGGTKLTVL | 19 | 33.5 | 
4 | sc 298 (antibody, V domains shown, Fully human XenoMouse mAb) VH: QVQLVESGGGVVQPGRSLRLSCAASGFTFSSYGMHWVRQAPGKGLEWVAVIWYGGSNKYYADSVKGRFTISRDNSKNTLYLQMNSLRAEDTAVYYCARDLAARRGDYYYYGMDVWGQGTTVTVSS VL: SSELTQDPVVSVALGQTVRITCQGDSLRSYYLSWYQQKPGQAPVLVIYGKNNRPSGIPDRFSGSNSGNTASLTITGAQAEDEADYYCNSRDSSGNHLFGGGTKLTVL | 53 | 63.1 | IC50 (read off the curve) [2]: ~0.2 µg/mL; percent of cells shifted [3]: 38%; percent of cells shifted [4]: 48%; percent of cells shifted [5]: 53%
5 | sc 97 (antibody, V domains shown, Fully human XenoMouse mAb; also called sc 097) VH: EVQLVQSGAEVKKPGESLKISCKGSGYSFTSYWIGWVRQMPGKGLEWMGIIYPGDSDTRYSPSFQGQVILSADKSISTAYLQWSSLKASDTAMYYCARHDESSGYYYVFDIWGQGTMVTVSS VL: SYELTQPPSVSVSPGQTARITCSGDALPKKYAYWYQQKSGQAPVLVIYEDIKRPSGIPERFSGSSSGTMATLTISGAQVEDEADYYCYSTDSSGNHWVFFGGGTKLTVL | 35 | 37 | 
6 | sc 188 (antibody, V domains shown, Fully human XenoMouse mAb; Has a glycosylation site (NLT) in heavy chain FR3) VH: QVQLQESGPGLVKPSQTLSLTCTVSGGSISSGVYYWTWIRQHPGNGLEWIGYIYYSGSTSYNPSLKSRVTISVDTSKKQFSLNLTSVTAADTAVYYCAREGPLRGDYYYGLDVWGQGTTVTVSS VL: EIVLTQSPGTLSLSPGERATLSCRAGQTISSRYLAWYQQKPGQAPRPLIYGASSRATGIPDRFSGSGSGTDFTLTISRLEPEDFAVYYCQQYGSSPRTFGQGTKVEIK |  | 23.9 | IC50 (read off the curve) [2]: ~0.2 µg/mL; EC50 (read off the curve) [6]: ~60 pM
7 | sc 188 SDM (antibody, V domains shown) VH: QVQLQESGPGLVKPSQTLSLTCTVSGGSISSGVYYWTWIRQHPGNGLEWIGYIYYSGSTSYNPSLKSRVTISVDTSKKQFSLKLTSVTAADTAVYYCAREGPLRGDYYYGLDVWGQGTTVTVSS VL: EIVLTQSPGTLSLSPGERATLSCRAGQTISSRYLAWYQQKPGQAPRPLIYGASSRATGIPDRFSGSGSGTDFTLTISRLEPEDFAVYYCQQYGSSPRTFGQGTKVEIK |  |  | Geometric Mean Shift [7]: 4530 arbitrary units; Geometric Mean Shift [8]: 6820 arbitrary units; Geometric Mean Shift [9]: 6760 arbitrary units
8 | sc 133 (antibody, V domains shown, Fully human XenoMouse mAb) VH: QVQLVQSGAEVKKPGASVKVSCKASGYTFTGYYMHWVRQAPGQGLEWMGWINPKSGDTNYAQKFQGRVTLTRDTSTSTAYMELSRLRSDDTAVYYCARRLDVWGQGTTVTVSS VL: QSVLTQPPSVSAAPGQKVTISCSGSSSNIGNNYVSWYQQLPGTAPKLLIYDNNKRPSGIPDRFSGSKSGTSATLGITGLQTGDEADYYCGTWNSSLSAGYVFGTGTKVTV | 32 | 35.2 | percent of cells shifted [10]: 10%; percent of cells shifted [11]: 28%; percent of cells shifted [12]: 5%
9 | sc 264 (antibody, V domains shown, Fully human XenoMouse mAb; Has RGD in heavy chain CDR3) VH: QVQLQESGPGLVKPSQTLSLTCTVSGGSISSGGYYWSWIRQHPGKGLEWIGYIYYSGRTYNNPSLKSRVTISVDTSKNQFSLKLSSVTAADTAVYYCARVATGRGDYHFYAMDVWGQGTTVTVSS VL: SYELTQPSSVSVSPGQTARITCSGDVLAKKSARWFHQKPGQAPVLVIYKDSERPSGIPERFSGSSSGTTVTLTISGAQVEDEAAYYCYSAADNNLVFGGGTKLTVL | 55 | 66.4 | 
10 | sc 264 RAD (antibody, V domains shown) VH: QVQLQESGPGLVKPSQTLSLTCTVSGGSISSGGYYWSWIRQHPGKGLEWIGYIYYSGRTYNNPSLKSRVTISVDTSKNQFSLKLSSVTAADTAVYYCARVATGRADYHFYAMDVWGQGTTVTVSS VL: SYELTQPSSVSVSPGQTARITCSGDVLAKKSARWFHQKPGQAPVLVIYKDSERPSGIPERFSGSSSGTTVTLTISGAQVEDEAAYYCYSAADNNLVFGGGTKLTVL |  |  | Geometric Mean Shift [7]: 4890 arbitrary units; EC50 (read off the curve) [13]: ~80 pM; Geometric Mean Shift [8]: 6840 arbitrary units; Geometric Mean Shift [9]: 7240 arbitrary units

More lines, main results first:

Row | Mac AVB6 % Cells Shifted [1] [%] | Mac AVB6 GeoMean [1] | Binder | other results
11 | 35 | 33.4 | sc 277 (antibody, V domains shown, Fully human XenoMouse mAb) VH: EVQLVQSGAEVKKPGESLKISCKGSGYSFPSYWIGWVRQMPGKGLEWMGIIYPGDSDTRYSPSFQGQVTISADKSISTAYLQWSSLKASDTAMYYCARHPMEDGMDVWGQGTTVTVSS VL: SYELTQPPSVSVSPGQTARITCSGDALPKKYAFWYQQKSGQAPVLVIYDDNKRPSGIPERFSGSSSGTMATLTITGAQVEDEADYYCYSTDSSGHHVFGGGTKLTVL | 
12 | 25 | 22.8 | sc 58 (antibody, V domains shown, Fully human XenoMouse mAb; also called sc 058) VH: not shown VL: SYELTQPPSVSVSPGQTARITCSGDALPKKYAYWYQQKSGQAPVLVIYDDSKRPSGIPERFSGSSSGTMATLTISGAQVEDEADYYCYSTDSSGNHRVFGGGTKLTVL | 
13 |  | 61.8 | sc 374 (antibody, V domains shown, Fully human XenoMouse mAb) VH: QVQLVESGGGVVQPGRSLRLSCAASGFTFSSYGMHWVRQAPGKGLEWVAVIWYDGSNKYYADSVKGRFTISRDNSKNTLYLQMNSLRAEDTAVYYCARTEGIAARLYYYYGMDVWGQGTTVTVSS VL: not shown | 
14 | 23 | 30.2 | sc 49 (antibody, V domains shown, Fully human XenoMouse mAb; also called sc 049) VH: QVQLQESGPGLVKPSQTLSLTCTVAGGSIRSGDYYWSWIRQHPGKGLEWIGNIYYSGSTYYNPSLKSRITISVATSRNQFSLKLTSVTAADTAVYYCARGGAITIFGVFDYWGQGTLVTVSS VL: not shown | 
